Assay results reported in patent US6087330A, “Process to inhibit binding of the integrin α4 β1 to VCAM-1 or fibronectin and cyclic peptides therefor” (Texas Biotechnology Corporation, priority 1998, dated 2000).
Bridges are numbered along the chain shown (N, C = ends). Where no end group is shown, it is not given here.

Target: T1, integrin α4 β1 binding to VCAM-1 (Homo sapiens, UniProt P05556+P13612)
T1 construct: endogenous in cells; host or cells: HL-60 cells (integrin α4β1); VCAM-IgG fusion made in house in transfected COS cells
T1 sequence (P13612 34-1032): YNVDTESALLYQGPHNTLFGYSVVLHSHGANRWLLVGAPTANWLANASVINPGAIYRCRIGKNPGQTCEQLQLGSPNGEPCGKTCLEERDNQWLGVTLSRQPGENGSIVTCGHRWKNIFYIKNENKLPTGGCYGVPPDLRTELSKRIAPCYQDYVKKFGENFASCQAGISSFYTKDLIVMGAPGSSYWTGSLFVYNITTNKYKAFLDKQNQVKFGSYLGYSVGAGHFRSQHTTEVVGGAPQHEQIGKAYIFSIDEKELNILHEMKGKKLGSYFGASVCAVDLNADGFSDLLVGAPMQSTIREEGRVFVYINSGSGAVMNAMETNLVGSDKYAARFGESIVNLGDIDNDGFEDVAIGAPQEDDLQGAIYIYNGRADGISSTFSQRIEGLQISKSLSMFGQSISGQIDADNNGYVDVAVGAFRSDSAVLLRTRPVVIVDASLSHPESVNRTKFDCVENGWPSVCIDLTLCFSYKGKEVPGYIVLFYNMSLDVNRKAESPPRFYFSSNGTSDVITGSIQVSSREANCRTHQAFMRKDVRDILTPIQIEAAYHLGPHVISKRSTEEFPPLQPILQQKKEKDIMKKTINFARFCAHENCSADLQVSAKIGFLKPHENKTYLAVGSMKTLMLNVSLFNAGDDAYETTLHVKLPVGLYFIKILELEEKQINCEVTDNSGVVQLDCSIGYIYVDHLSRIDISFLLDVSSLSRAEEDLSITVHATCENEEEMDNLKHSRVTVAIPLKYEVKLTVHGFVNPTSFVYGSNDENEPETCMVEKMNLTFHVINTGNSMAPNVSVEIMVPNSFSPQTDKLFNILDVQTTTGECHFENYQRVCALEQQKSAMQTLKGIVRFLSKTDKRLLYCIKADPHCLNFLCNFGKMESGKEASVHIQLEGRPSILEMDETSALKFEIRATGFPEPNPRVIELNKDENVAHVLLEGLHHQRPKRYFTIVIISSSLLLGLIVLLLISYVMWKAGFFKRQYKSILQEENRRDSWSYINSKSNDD
T1 sequence (P05556 21-798): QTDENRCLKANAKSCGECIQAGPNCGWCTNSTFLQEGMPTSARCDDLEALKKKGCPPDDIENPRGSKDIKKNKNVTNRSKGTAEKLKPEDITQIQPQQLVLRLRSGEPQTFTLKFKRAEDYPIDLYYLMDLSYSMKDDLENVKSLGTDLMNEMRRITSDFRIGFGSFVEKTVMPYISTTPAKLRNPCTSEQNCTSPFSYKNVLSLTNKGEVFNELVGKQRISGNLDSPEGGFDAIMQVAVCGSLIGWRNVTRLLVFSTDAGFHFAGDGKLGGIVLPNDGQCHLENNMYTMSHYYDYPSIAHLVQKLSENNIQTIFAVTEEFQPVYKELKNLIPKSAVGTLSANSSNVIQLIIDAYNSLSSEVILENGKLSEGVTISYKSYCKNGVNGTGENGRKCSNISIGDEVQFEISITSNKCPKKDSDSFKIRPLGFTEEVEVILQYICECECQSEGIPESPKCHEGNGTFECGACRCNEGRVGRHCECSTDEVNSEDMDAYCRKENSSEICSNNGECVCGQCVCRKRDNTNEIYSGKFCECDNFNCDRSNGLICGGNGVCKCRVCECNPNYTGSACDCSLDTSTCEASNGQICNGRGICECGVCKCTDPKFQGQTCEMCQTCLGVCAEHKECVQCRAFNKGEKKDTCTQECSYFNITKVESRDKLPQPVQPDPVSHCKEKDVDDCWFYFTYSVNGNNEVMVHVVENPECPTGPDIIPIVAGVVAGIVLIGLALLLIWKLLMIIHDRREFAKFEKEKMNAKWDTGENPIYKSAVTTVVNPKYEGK
Assay: VCAM-1/α4 β1 Binding Assay (binding of labeled HL-60 cells to VCAM-IgG fusion protein on magnetic beads)
Assay type: cell-based
Details: 10 min at room temperature
Protocol: Peptides were assayed for their ability to inhibit the binding of the integrin α4 β1 to VCAM. […] The assays are described below.
VCAM-1/α4 β1 Binding Assay
The assay involves determining the ability of cells that express α4 β1 to bind directly to purified VCAM. The integrin-expressing cell type used in this assay was HL-60, a human promyelocytic line.
An expression vector was designed such that a region of VCAM known to bind the integrin was expressed as a fusion protein with mouse IgG. A cDNA containing the two N-terminal domains of human VCAM was generated by the polymerase chain reaction (PCR) from a full length VCAM cDNA. Similarly, a cDNA containing the hinge, CH2 and CH3 regions of mouse IgG, was amplified by PCR from cDNA made from total RNA isolated from the hybridoma cell line 402C10. […]
HL-60 cells were fluorescently labeled with Calcein AM C-3099 (Molecular Probes) and resuspended in 1 ml of binding buffer (Hank's balanced salt solution, pH 7.4, 1.0 mM CaCl2, 1.0 mM MgCl2). […] The remaining bound cells were lysed in 50 mM Tris, pH 7.4, 5.0 mM EDTA, 1.0% NP-40 and quantitated by fluorimetry using a Millipore Cytofluor 2350 fluorimeter. Dose response curves were calculated and IC50 values determined. Alternatively, the percent adhesion was determined at a single peptide concentration for comparison among peptides.

Row | concentration of peptide found to significantly inhibit the binding of α4 β1 integrin to VCAM-1 | Substance
1 | less than 10 μM | Cys-Trp-Leu-Asp-Leu-Cys-acid (CWLDLC-OH; disulfide 1-6; not fully specified (N-terminus, bridges); printed as Cys-Trp-Leu-Asp-Leu-Cys-acid) [SEQ ID NO:28]
2 | less than 10 μM | Cys-Trp-Leu-Asp-Tyr-Cys-acid (CWLDYC-OH; disulfide 1-6; not fully specified (N-terminus, bridges); printed as Cys-Trp-Leu-Asp-Tyr-Cys-acid) [SEQ ID NO:29]
